Changes are numbered by the printed parent chain. Names may count otherwise.
T1: wild-type murine IL-11Rα on stably transfected Ba/F3 cells (with co-receptor murine gp130) (murine, UniProt Q64385 24-432)
T1 sequence (looked up): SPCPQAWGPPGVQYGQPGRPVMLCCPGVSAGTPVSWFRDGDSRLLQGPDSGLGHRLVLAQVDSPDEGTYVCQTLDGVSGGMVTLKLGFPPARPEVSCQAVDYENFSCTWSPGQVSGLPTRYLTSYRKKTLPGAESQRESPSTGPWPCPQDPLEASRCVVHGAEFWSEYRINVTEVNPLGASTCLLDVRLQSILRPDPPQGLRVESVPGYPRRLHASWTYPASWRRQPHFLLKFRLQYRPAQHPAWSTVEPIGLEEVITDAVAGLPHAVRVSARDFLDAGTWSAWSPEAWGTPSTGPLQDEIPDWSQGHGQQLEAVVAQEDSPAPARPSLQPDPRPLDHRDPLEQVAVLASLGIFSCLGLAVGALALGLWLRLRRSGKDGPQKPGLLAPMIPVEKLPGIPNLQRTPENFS

T2: mIL-11Rα-Fc (murine, UniProt Q64385 24-372)
T2 construct: Coated on the ELISA plates; not shown: Fc part of the bought fusion protein
T2 sequence (looked up): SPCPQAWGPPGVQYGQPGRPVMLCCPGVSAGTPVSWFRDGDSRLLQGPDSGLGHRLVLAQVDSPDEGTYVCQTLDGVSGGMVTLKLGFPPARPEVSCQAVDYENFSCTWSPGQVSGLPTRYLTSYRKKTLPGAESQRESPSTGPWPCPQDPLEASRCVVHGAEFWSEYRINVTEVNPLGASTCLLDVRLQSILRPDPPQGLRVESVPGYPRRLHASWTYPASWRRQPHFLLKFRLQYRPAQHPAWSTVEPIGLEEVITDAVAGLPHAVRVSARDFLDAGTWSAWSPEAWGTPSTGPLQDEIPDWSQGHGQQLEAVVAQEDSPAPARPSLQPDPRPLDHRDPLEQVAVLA

B1: IL-11 mutant 1B.382 (murine FMQIQ and W147A IL-11 mutein), N-terminal hexahistidine-tagged (ligand)
chain: PGPPAGSPRVSSDPRADLDSAVLLTRSLLADTRQLAAQMRDKFPADGDHSLDSLPTLFMQIQTLGSLQLPGVLTRLRVDLMSYLRHVQWLRRAGGPSLKTLEPELGALQARLERLLRRLQLLMSRLALPQAAPDQPVIPLGPPASAAGSIRAAHAILGGLHLTLDWAVRGLLLLKTRL
notes: Mutein of mature murine IL-11 with FMQIQ at 58-62 and W147A; also called clone 1B.382; not shown: N-terminal hexahistidine tag from the modified pET15b vector
B2: IL-11 mutant 1.21 (murine PAIDY and W147A IL-11 mutein), N-terminal hexahistidine-tagged (ligand)
chain: B1 chain with F58P, M59A, Q60I, I61D, Q62Y
notes: Mutein of mature murine IL-11 with PAIDY at 58-62 and W147A; not shown: N-terminal hexahistidine tag from the modified pET15b vector
B3: mIL-11-W147A, N-terminal hexahistidine-tagged (ligand, not shown: small tags and cut ends)
chain: B1 chain with F58A, Q60S, I61A, Q62G
B4: Δ1.21 (PEGylated and truncated modified form of clone 1.21, W147C, amino acids 10-178 of SEQ ID NO:12) (ligand)
chain: VSSDPRADLDSAVLLTRSLLADTRQLAAQMRDKFPADGDHSLDSLPTLPAIDYTLGSLQLPGVLTRLRVDLMSYLRHVQWLRRAGGPSLKTLEPELGALQARLERLLRRLQLLMSRLALPQAAPDQPVIPLGPPASACGSIRAAHAILGGLHLTLDWAVRGLLLLKTRL
modifications: 40 kDa mPEG2-maleimide on Cys147 (position corresponding to position 147 of SEQ ID NO:12)
notes: His-tag and first nine residues (which carried the optimized thrombin site, residues 6 and 7 to L and V) removed by thrombin; N-terminus Val10-Ser11-Ser12; also called PEGylated mutein; pegylated mouse IL-11 mutein Δ1.21

Key:
[1] = molecular target: T1, wild-type murine IL-11Rα on stably …; assay: cell-based or functional assay
mIL-11Rα-Fc [2] = molecular target: T2, mIL-11Rα-Fc; assay: competition ELISA, soluble protein against phage displayed IL-11 variants on coated mIL-11Rα-Fc
Procedure: The affinity of the selected IL-11 mutants for IL-11Rα was determined in a competition ELISA experiment. […] After incubation for 2 hours at room temperature, the plates were washed and bound phage were then labeled with an anti-M13 polyclonal antibody conjugated to horseradish peroxidase. After the removal of excess antibody by washing with PBS containing 0.05% Tween 20, TMB substrate was added to each well and incubated for 10 minutes before the reaction was quenched by the addition of 2M phosphoric acid. Absorbance at 450 nm was then determined for each well by analysis on a microtitre plate reader.
Clear differences were observed between the affinities of the mIL-11-W147A and mutant proteins for binding to IL-11Rα-Fc.

[3] = molecular target: T1, wild-type murine IL-11Rα on stably …; assay: cell-based or functional assay; remark: listed apart in the source
mIL-11Rα-Fc [4] = molecular target: T2, mIL-11Rα-Fc; assay: IL-11Rα binding ELISA

| Binder | IC50 (nM), inhibition of IL-11-induced proliferation of IL-11Rα/gp130 Ba/F3 cells (MTT) [1] [nM] | fold higher affinity relative to W147A IL-11 (mIL-11Rα-Fc [2]) [fold] | fold reduction of the ability to antagonize IL-11-induced Ba/F3 cell proliferation, relative to non-PEGylated 1.21 [3] [fold] | fold reduction of binding affinity relative to non-PEGylated 1.21 (mIL-11Rα-Fc [4]) [fold] |
| --- | --- | --- | --- | --- |
| B1 | 0.49 | 20 |  |  |
| B2 | 0.54 | 20 |  |  |
| B3 | 14 |  |  |  |
| B4 |  |  | ~10 | ~5 |

Reference: patent publication US20110300100A1 (CSL, published 2011)
